# Data from the nanobody polyreactivity screen of Harvey et al. (2022).
# Experiment: yeast display, Sf9 membrane polyspecificity reagent, FACS + sequencing; frameworks hold sequencing errors
# Procedure, shortened: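 Genes from sorted yeast were amplified by colony PCR, read by MiSeq 2 × 250 sequencing and filtered on CDR length. These cells carried a synthetic nanobody library in Saccharomyces cerevisiae BJ5465 and were sorted by FACS into low and high (top ~1%) gates on anti-HA and streptavidin fluorescence. Polyreactivity is labelled according to the gate of origin.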
row,Sequence,polyreactivity (PSR sort gate)
1,QVQLVESGGGLVQAGGSLRLSCAASGSTFKDNAMGWYRLAPGKERELVARITYRGGRTYADSVKGRFTISRDNAKNTVFLQMNSLKPEDTAVYYCAARPSLYGHNSRYDYWGQGTQVTVSS,low polyreactivity
2,QVQLVESGGGLVQAGGSLRLSCAASGSTFKFYAMGWYRQAPGKARELVASITSSSGPTYYADSVKGRFTISRDNAKNTVYLQMNSLKPEDPAVYYCNKDWRRYWLRGDYWGQGTQVTVSS,low polyreactivity
3,QVQLVESGGGLVQAGGSLRLSCAASGSTFKIYAMGWYRQAPGKERELVASIRGRGGSTYYADSVKGRFTISRDNAKNTVYLQLNSLKPEDTAVYYCNATYGHRYAPGISYDYWGQGSQVTVSS,high polyreactivity
4,QVQLVESGGGLVQAGGSLRLSCAASGSTFKIYARGWYRQAPGKERELVARITGRGGSTYYADSVKGRFTISRDNAKNTVYLQMNSLKPEDTAVYYCAARVYTYYYDLHKRYYWGQGTQVTVSS,high polyreactivity
5,QVQLVESGGGLVQAGGSLRLSCAASGSTFKKYVMGWYRQAPGKERELVAAISGRGGSTYYADSVKGRFTISRDNAKNTVYLQMNSLKPEDTAVYYCNARKQTARFDSWGQGTQVTVSS,high polyreactivity
6,QVQLVESGGGLVQAGGSLRLSCAASGSTFKNYAMGWYRQAPGKERELVAAINVSGARTYYADSVKGRFTISRDNAKNTVYLQMNSLKPEDTAVYYCAAYYSGVGYDYWGQGTQVTVSS,high polyreactivity
7,QVQLVESGGGLVQAGGSLRLSCAASGSTFKRNAMGWSRQAPGKEWELVAAITFSGATTYYADSVKGRFTISRDNAKNTVYLQMNSLKPEDTAVYYCATKAYTTGRYYWGQGTQVTVSS,high polyreactivity
8,QVQLVESGGGLVQAGGSLRLSCAASGSTFKRNAMGWYRPAPGKERELVAAITFSGATTYYADSVKGRFTISRDNAKNTVYLQMNSLKPEDTAVYYCATKAYTTGRYYWGQGTQVTVSS,high polyreactivity
9,QVQLVESGGGLVQAGGSLRLSCAASGSTFKRNAMGWYRPATGKERELVATITRRGGSTYADSVKGRFTISRDNAKNTVYLQMNSLKPEDTAVYYCNADSRPLSTYYYWGQGTQVTVSS,low polyreactivity
10,QVQLVESGGGLVQAGGSLRLSCAASGSTFKRNAMGWYRQAPGKERELVAAITSGGSTYYADSVKGRFTISRDNAKNTVYLQMNSLKPEDTAVYYCNKVRGAFYSHLFDYWGQGTQVTVSS,high polyreactivity
11,QVQLVESGGGLVQAGGSLRLSCAASGSTFKRNAMGWYRQATGKERELVAAISTNGGRTYYADSVKGRFTISRDNAKNTVYLQMNSLKPEDTAVYYCAVDLFDGVTKLNYDYWGQGTQVTVSS,low polyreactivity
12,QVQLVESGGGLVQAGGSLRLSCAASGSTFKRNTMGWYRQAPGKERELVAAISRSGGYTYYADSVKGRFTISRDNAKNTVYLQMNSLNPEDTAVYYCNANVSSYVGSRSYGLSPYDYWGQGTQVTVSS,high polyreactivity
13,QVQLVESGGGLVQAGGSLRLSCAASGSTFKSYAMGWYRQAPGKERELVAAISRSGGRTYYADSVKGRFTISRDNAKNTVYLQMNSLKPEDTAVYYCATGVKREGDYWGQGTQVTVSS,high polyreactivity
14,QVQLVESGGGLVQAGGSLRLSCAASGSTFKSYAMGWYRQAPGKERELVAAITHRGSTYYADSVKGRFTTSRDNAKNTVYLQMNSLKPEDTAVYYCNVRRIGNGRRVDYWGQGTQVTVSS,high polyreactivity
15,QVQLVESGGGLVQAGGSLRLSCAASGSTFKSYAMGWYRQEPGKERELVAAITVSGGSTYYADSVKGRFTISRDNAKNTVYLQMNSLKPEDTAVYYCAADSVLLKDTGYDYWGQGTQVTVSS,low polyreactivity
16,QVQLVESGGGLVQAGGSLRLSCAASGSTFKTYTMGWYRQAPGKERELVAGITSGGSTSYADSVKGRFTISRDNAKNTVYLQMNSLKPEDTAVYYCNADAYLVIYFYTVRDYGYDYWGQGTQVTVSS,low polyreactivity
17,QVQLVESGGGLVQAGGSLRLSCAASGSTFKVYAMGWYRQAPGKERELVAAISQSGGSTYYADSVKGRFTITRDNAKNTVYFQMKSLKPEDTAVYYCAVRTYVYHWSFSSLPYDYWGQGTQVTVSS,high polyreactivity
18,QVQLVESGGGLVQAGGSLRLSCAASGSTFKVYAMGWYRQAPGKERELVAVISGGGRTNYADSVKGRFTISRDNAKNTVYLQMNSLNPEDTAVYYSAALGPYGSARRKYGYWGQGTQVTVSS,high polyreactivity
19,QVQLVESGGGLVQAGGSLRLSCAASGSTFKWYAMGWYRQAPGKERELVAAISQSGSRTYYADSVKGRFTISRDNAKNTVYLQMNSLKPEDTAVYYCNARRYIYNYDYWGQGTQVTVSS,high polyreactivity
20,QVQLVESGGGLVQAGGSLRLSCAASGSTFKYYAMGWSRQAPGKERELVAAISYRGGRTYYADSVKGRFTISRDNAKNTVYLQMNSLKPEDTAVYYCPAVKPYYIQYQGSAGYDYWGQGTQVTVSS,high polyreactivity
21,QVQLVESGGGLVQAGGSLRLSCAASGSTFKYYAMGWYRQAPGKERELVAAITWRGGSTYYADSVKGRFTISRDNAKNTVYLQMNSLKPEDTAVYYCNRAYLYAYRSWWETYLRGDYWGQGTQVTVSS,high polyreactivity

row,Sequence,polyreactivity (PSR sort gate)
1,QVQLVESGGGLVQAGGSLRLSCAASGSTFKYYAMGWYRQAPGKERELVARISSGGRTYYADSVKGRFTISRDNAKNTVYLQMNSLKPEDTAVYYCNAQGYTTYRGDYWGQGTQVTVSS,high polyreactivity
2,QVQLVESGGGLVQAGGSLRLSCAASGSTFKYYVMGWYRQAPGKEREFVAAITLRGGRTYYADSVKGRFTISRDNAKNTVYLQMNSLKPEDTAVYYCNAAYYLGWAHGTGRVEYDYWGQGTQVTVSS,high polyreactivity
3,QVQLVESGGGLVQAGGSLRLSCAASGSTFLANAMGWYRQAPGKERELVATISSGGSTNYADSVKGRFTISRDNAKNTVYLQMNSLKPEDTAVYYCAAEYWYAWQEYGYWGQGTQVTVSS,low polyreactivity
4,QVQLVESGGGLVQAGGSLRLSCAASGSTFLANAMGWYRQAPGKEWELVATISSGGSTNYADSVKGRFTISRDNAKNTVYLQMNSLKPEDTAVYYCAAEYWYAWQEYGYWGQGTQVTVSS,low polyreactivity
5,QVQLVESGGGLVQAGGSLRLSCAASGSTFLDNAMGWFRQAPGKERELVAAITSGDSTKYADSVKGRFTISRDNEKNTVYLQMNSLKPEDTAVYYCAADVGRNKMDYWGQGTQVTVSS,low polyreactivity
6,QVQLVESGGGLVQAGGSLRLSCAASGSTFLENAMGWYRQAPGKEREFVAAISKSGGSTSYADSVKGRFTISRDNAKNTVYLQMNSLKPEDTAVYYCATRRSRAYDYWGQGTQVTVSS,high polyreactivity
7,QVQLVESGGGLVQAGGSLRLSCAASGSTFLGYDMGWYRHAPGKERELVATISKSGGSTHYADSVKGRFTISRDNAKNTVYLQMNSLKPEDTAVYYCAADYYQRYYKKSGEYDYWGQGTQVTVSS,low polyreactivity
8,QVQLVESGGGLVQAGGSLRLSCAASGSTFLGYVMGWYRQAPGKEREFVAAITWSVGSTYYADSVKGRFTISRDNAKNTVYLQMNSLKPEDTAVYYCAVRWVYANIYPDMEYWGQGTKVTVSS,low polyreactivity
9,QVQLVESGGGLVQAGGSLRLSCAASGSTFLHYAMGWYRQAPGKERELVAAISRRGGRTYYADSVKGRFTISRDNAKNTVYLQMNSLKPEDTAVYYCAVDGIRDGYWIFYYWGQGTQVTVSS,low polyreactivity
10,QVQLVESGGGLVQAGGSLRLSCAASGSTFLLYAMGWYRPAPGKERELVATISWGGDGTYYADSVKGRFTISRDNAKNTVYLHLNSLKPEDSAVYYCAAYSYFGYYWDGQLPYRLPYDYWGQGTQVTLSS,low polyreactivity
11,QVQLVESGGGLVQAGGSLRLSCAASGSTFLNYALGWYRQAPGKERELVASISYSAGSTYYADSVKGRFTISRDNAKNTVYLQMNSLKPEDTAVYYCAARLARAGYWRRNYYYWGQGTQVTVSS,high polyreactivity
12,QVQLVESGGGLVQAGGSLRLSCAASGSTFLNYAMGWYRQAPGKERELVAAISGSTTRTYYADSVKGRFTISRDNAKNTVYLQMNSLKPEDTAVYYCARYSLYTGYRRYPLDYDYWGQGTQVTVSS,high polyreactivity
13,QVQLVESGGGLVQAGGSLRLSCAASGSTFLNYAMGWYRQAPGKERELVAAITGSGGRTYYADSVKGRFTISRDNAKNTVYLQMNSLKPEDTAVYYCAASATYDPHDYWGQGTQVTVSS,high polyreactivity
14,QVQLVESGGGLVQAGGSLRLSCAASGSTFLPNDMGWYRQAPGKERELVAAISWSDGSTYYADSVKGRFTISRDNAKNTVYLQMNSLKPEDTAVYYCNTVGFDYYYYEYDYWGQGTQVTVSS,low polyreactivity
15,QVQLVESGGGLVQAGGSLRLSCAASGSTFLPYAMGWYRQAPGKERELVAAIRWSVGSTYYADSVKGRFTISRDNAKNTVYLQMNSLKPEDTAVYYCAVTYGRGYEYWGQGTQVTVSS,high polyreactivity
16,QVQLVESGGGLVQAGGSLRLSCAASGSTFLRNAMGWYRQAPGKERQLVAAISRRGGSTYYADSVKGRFTISRDNAKNTVYLQMNSLKPEDTSVYYCAKDYRSPISGDYWGQGTQVTVSS,high polyreactivity
17,QVQLVESGGGLVQAGGSLRLSCAASGSTFLRYAMGWYREAPGTERELVAAISVSGGSTYYADSVKGRFTISRDNAKNTVYLQMNSLKPEYTAVYYCIAVTKFHRRYNYWGQGTQVTVSS,high polyreactivity
18,QVQLVESGGGLVQAGGSLRLSCAASGSTFLRYAMGWYRQAPGKERELVAAISSGTSTNYADSVKGRFTISRDNAKNTVYLQMNSLKPEDTAVYYCAAVYAWLFWYDSWGQGTQVTVSS,low polyreactivity
19,QVQLVESGGGLVQAGGSLRLSCAASGSTFLRYAMGWYRQAPGKERELVATISRSDDGTYYADSVKGRFTISRDNAKNTVYLQMNSLKPEDTAVYYCAARSWYLYYYWGQGTQVTVSS,low polyreactivity
20,QVQLVESGGGLVQAGGSLRLSCAASGSTFLRYAMGWYRQAPGKERELVATITSGGSTYADSVKGRFTISRDNAKNTVYLQMNSLKPEDTAVYYCAARANTKKPYYYWGQGTQVTVSS,high polyreactivity
